# According to publication PMC5460178 (NPJ Biofilms and Microbiomes, 2017):
# B1: GroEL-P (His6-GroEL of B. anthracis co-expressed with PrkCc in E. coli, phosphorylated) (natural protein)
# chain: MAKDIKFSEEARRSMLRGVDTLANAVKVTLGPKGRNVVLEKKFGSPLITNDGVTIAKEIELEDAFENMGAKLVAEVASKTNDVAGDGTTTATVLAQAMIREGLKNVTAGANPMGLRKGIEKAVVAAVEELKTISKPIEGKSSIAQVAAISAADEEVGQLIAEAMERVGNDGVITLEESKGFTTELDVVEGMQFDRGYASPYMITDSDKMEAVLDNPYILITDKKISNIQEILPVLEQVVQQGKPLLIIAEDVEGEALATLVVNKLRGTFNVVAVKAPGFGDRRKAMLEDIAILTGGEVITEELGRDLKSATVESLGRAGKVVVTKENTTVVEGVGSTEQIEARIGQIRAQLEETTSEFDREKLQERLAKLVGGVAVIKVGAATETELKERKLRIEDALNSTRAAVEEGIVAGGGTSLMNVYTKVASIVAEGDEATGINIVLRALEEPVRQIAINAGLEGSVVVERLKGEKVGVGFNAATGEWVNMLETGIVDPAKVTRSALQNAASVAAMFLTTEAVVADKPEPNAPAMPDMGGMGMGGMGGMM
# Molecular target: the molecule itself
# Test: SEC
protein,measurement,value
B1,stoichiometry N,14
